Source: doi:10.1101/812115
Where two headings read alike, the source gives them in different places.

Assays:
[1] = target: TDP-43 C-terminal domain (TDP-43CTD) (267-414) (UniProt Q13148); assay: co-sedimentation
[2] = target: TDP-43 C-terminal domain (TDP-43CTD) (267-414) (UniProt Q13148); assay: co-sedimentation; remark: listed apart in the source

Sequence of UniProt Q13148 (Q13148 267-414): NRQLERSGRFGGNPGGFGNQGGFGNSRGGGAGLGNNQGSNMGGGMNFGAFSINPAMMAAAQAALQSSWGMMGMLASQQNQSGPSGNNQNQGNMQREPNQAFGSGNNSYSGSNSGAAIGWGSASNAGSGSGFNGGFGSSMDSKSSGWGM

stoichiometry N (GRN per TDP-43CTD) [1] | stoichiometry N (GRN per TDP-43CTD) [2] | Substance
1.1 |  | rGRN-5 (granulin-5, fully reduced) (domain or fragment)
0.75 | 0.73 | GRN-5 (granulin-5, oxidized) (domain or fragment)
